Assay results reported in US20190071480A1 (Biogen, published 2019).
Numbering of substitutions follows the chain as printed.

Experiments:
[1] = molecular target: T1, extracellular domain of activin receptor type IIB (ActRIIBecd), biotinylated (Homo sapiens (Human), UniProt Q13705 27-117, amino-biotinylated with amine-PEG3-Biotin); assay: BIAcore SPR as Example 5 (method not restated); SD ±1.39 nM
T1 construct: immobilised on a streptavidin-coated sensor chip; also called biotinylated ActRIIBecd; extracellular domain of ActRIIB
T1 sequence: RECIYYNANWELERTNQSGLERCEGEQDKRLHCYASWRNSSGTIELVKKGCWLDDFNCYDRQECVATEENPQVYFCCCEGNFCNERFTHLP
Procedure: (§1) Biosensor experiments. In one embodiment, experiments were performed on a BIAcore™ T100/T200 instrument (Pharmacia Biosensor AB) in the multichannel mode (serial flow path involving flow cells 1+2+3+4). Flow rate was 10 μl/min; temperature was 25° C.; and data were recorded at 2.5 points/s. All four segments of a sensor chip CMS were coated with streptavidin (Sigma) to a density of 2000 pg/mm² (2000 resonance units) by the aminocoupling procedure. ActRIIBecd (10 mg) and amine-PEG3-Biotin (10 mg, Pierce, Rockford, Ill.) were dissolved in 200 μl H₂O and 10 mg NaCNBH₃ was added to prepare biotinylated ActRIIBecd. The reaction mixture was heated at 70° C. for 24 h, after that a further 10 mg NaCNBH₃ was added and the reaction was heated at 70° C. for another 24 h. After cooling to room temperature, the mixture was desalted with the spin column (3,000 molecular weight cut off (MWCO)). […] Sensograms were recorded during flow of the analyte (the ActRIIBecd-associated polypeptides (i.e., domains) as previously described) first through flow cell 1 (control) then through flow cell 2 (biotinylated ActRIIBecd). […] The sensograms obtained at 1.11, 3.33, 10, 30, and 90 nM analyte were evaluated for equilibrium binding, association rate, and dissociation rate by using the programs supplied with the instrument (BIA evaluation 2.1; Software Handbook. 1995; Pharmacia Biosensor AB).

[2] = molecular target: T1, extracellular domain of activin …; assay: Mean KD column of Table 5; method not restated (BIAcore as Example 5); species also listed in Table 4
Outline: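 Equilibrium binding plus on- and off-rates came from reference-subtracted sensograms of five analyte concentrations (1.11, 3.33, 10, 30, 90 nM). The receptor domain, amine-linked to biotin, sat on a streptavidin chip at a density of 50-250 RU. Flow was 10 μl/min at 25° C.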

[3] = molecular target: T1, extracellular domain of activin …; assay: BIAcore SPR as Example 5 (method not restated); SD ±1.71 nM
Procedure: as §1

[4] = molecular target: T1, extracellular domain of activin …; assay: BIAcore SPR as Example 5 (method not restated); SD ±0.67 nM
Procedure: as §1

[5] = molecular target: T1, extracellular domain of activin …; assay: BIAcore SPR as Example 5 (method not restated); SD ±2.66 nM
Procedure: as §1

[6] = molecular target: T1, extracellular domain of activin …; assay: BIAcore SPR as Example 5 (method not restated); SD ±3.57 nM
Procedure: as §1

[7] = molecular target: T1, extracellular domain of activin …; assay: BIAcore SPR as Example 5 (method not restated); SD ±1.30 nM
Procedure: as §1

[8] = molecular target: T1, extracellular domain of activin …; assay: BIAcore SPR, biotinylated ActRIIBecd on chip; SD ±18.12 nM
Procedure: as §1

[9] = molecular target: T1, extracellular domain of activin …; assay: BIAcore SPR, biotinylated ActRIIBecd on chip; SD ±17.89 nM
Procedure: as §1

[10] = molecular target: T1, extracellular domain of activin …; assay: BIAcore SPR as Example 5 (method not restated); SD ±2.65 nM
Procedure: as §1

[11] = molecular target: T1, extracellular domain of activin …; assay: BIAcore SPR as Example 5 (method not restated); SD ±1.43 nM
Procedure: as §1

[12] = molecular target: T1, extracellular domain of activin …; assay: BIAcore SPR as Example 5 (method not restated); SD ±2.07 nM
Procedure: as §1

[13] = molecular target: T1, extracellular domain of activin …; assay: BIAcore SPR as Example 5 (method not restated); SD ±1.33 nM
Procedure: as §1

[14] = molecular target: T1, extracellular domain of activin …; assay: BIAcore SPR as Example 5 (method not restated); SD ±1.13 nM
Procedure: as §1

[15] = molecular target: T1, extracellular domain of activin …; assay: BIAcore SPR as Example 5 (method not restated); SD ±1.76 nM
Procedure: as §1

[16] = molecular target: T1, extracellular domain of activin …; assay: BIAcore SPR as Example 5 (method not restated); SD ±1.05 nM
Procedure: as §1

[17] = molecular target: T1, extracellular domain of activin …; assay: BIAcore SPR as Example 5 (method not restated); SD ±1.38 nM
Procedure: as §1

B1: SEQ ID NO: 300, cysteine pairs C23-C27^a, C65-C65^b, C79-C112^a, C80-C114^a (designed binder)
chain: VDFKDVGWNDHAVAPPGYHAFYCHGECPFPLADHLNSDNHAIVQTKVNSVGQAKRKGYKRLKSSCKRHPLYNSKDPKACCVPTELSAPSPLYLDENEKPVLKNYQDMVVHGCGCR
modifications: disulfides C23-C27 (intra), C65-C65 (inter), C79-C112 (intra), C80-C114 (intra)
notes: homodimer by intermolecular disulfide
Kd [1]: 5.14 nM | Kd [2]: 5.14 nM

B2: SEQ ID NO: 300, cysteine pairs C23-C27^a, C65-C65^b, C79-C114^a, C80-C112^a (designed binder)
chain: B1 chain
modifications: disulfides C23-C27 (intra), C65-C65 (inter), C79-C114 (intra), C80-C112 (intra)
notes: as for B1
Kd [3]: 7.37 nM | Kd [2]: 7.37 nM

B3: SEQ ID NO: 292, cysteine pairs C15-C80^a, C44-C112^a, C48-C114^a, C79-C79^b (designed binder)
chain: GQAKRKGYKRLKSSCKRHPLYVDFKDVGWNDHAVAPPGYHAFYCHGECPFPLADHLNSDNHAIVQTKVNSVNSKDPKACCVPTELSAPSPLYLDENEKPVLKNYQDMVVHGCGCR
modifications: disulfides C15-C80 (intra), C44-C112 (intra), C48-C114 (intra), C79-C79 (inter)
notes: as for B1
Kd [4]: 4.77 nM | Kd [2]: 4.77 nM

B4: SEQ ID NO: 292, cysteine pairs C79-C80^a (designed binder)
chain: B3 chain
modifications: disulfides C79-C80 (intra)
Kd [5]: 29 nM | Kd [2]: 29 nM

B5: SEQ ID NO: 292, cysteine pairs C15-C15^b, C79-C114^a, C80-C112^a, C44-C48^a (designed binder)
chain: B3 chain
modifications: disulfides C15-C15 (inter), C79-C114 (intra), C80-C112 (intra), C44-C48 (intra)
notes: as for B1
Kd [6]: 5.81 nM | Kd [2]: 5.81 nM

B6: SEQ ID NO: 292, cysteine pairs C80-C114^b, C79-C112^b, C44-C48^a (designed binder)
chain: B3 chain
modifications: disulfides C80-C114 (inter), C79-C112 (inter), C44-C48 (intra)
notes: as for B1
Kd [7]: 5.54 nM | Kd [2]: 5.54 nM

B7: Clone No. 16 domain (ActRIIBecd-associated polypeptide) (peptide)
chain: VDFSDVGWNDWAVAPPGYHAFYCHGECPFPLADHLNSDNHAIVQTLVNSV
Kd [8]: 56 nM

B8: Clone No. 17 domain (ActRIIBecd-associated polypeptide) (peptide)
chain: B7 chain with A12I
Kd [9]: 67.4 nM

B9: SEQ ID NO: 316, cysteine pairs C8-C67^a (designed binder)
chain: NSKDPKACCVPTELSAPSPLYLDENEKPVLKNYQDMVVHGCGCRVDFKDVGWNDHAVAPPGYHAFYCHGECPFPLADHLNSDNHAIVQTKVNSVGQAKRKGYKRLKSSCKRHPLY
modifications: disulfides C8-C67 (intra)
Kd [10]: 28.9 nM | Kd [2]: 28.9 nM

B10: SEQ ID NO: 308, cysteine pairs C59-C59^b, C8-C41^a, C9-C43^a, C88-C92^a (designed binder)
chain: NSKDPKACCVPTELSAPSPLYLDENEKPVLKNYQDMVVHGCGCRGQAKRKGYKRLKSSCKRHPLYVDFKDVGWNDHAVAPPGYHAFYCHGECPFPLADHLNSDNHAIVQTKVNSV
modifications: disulfides C59-C59 (inter), C8-C41 (intra), C9-C43 (intra), C88-C92 (intra)
notes: as for B1
Kd [11]: 5.98 nM | Kd [2]: 5.98 nM

B11: SEQ ID NO: 308, cysteine pairs C8-C9^a (designed binder)
chain: B10 chain
modifications: disulfides C8-C9 (intra)
Kd [12]: 31.2 nM | Kd [2]: 31.2 nM

B12: SEQ ID NO: 308, cysteine pairs C59-C59^b, C8-C43^a, C9-C41^a, C88-C92^a (designed binder)
chain: B10 chain
modifications: disulfides C59-C59 (inter), C8-C43 (intra), C9-C41 (intra), C88-C92 (intra)
notes: as for B1
Kd [13]: 6.11 nM | Kd [2]: 6.11 nM

B13: SEQ ID NO: 284, cysteine pairs C59-C59^b, C8-C41^a, C9-C43^a, C88-C92^a (designed binder)
chain: NSKIPKACCVPTELSAISMLYLDENEKVVLKNYQDMVVEGCGCRAQAKHKQRKRLKSSCKRHPLYVDFSDVGWNDWIVAPPGYHAFYCHGECPFPLADHLNSTNHAIVQTLVNSV
modifications: disulfides C59-C59 (inter), C8-C41 (intra), C9-C43 (intra), C88-C92 (intra)
notes: as for B1
Kd [14]: 4.89 nM | Kd [2]: 4.89 nM

B14: SEQ ID NO: 284, cysteine pairs C59-C59^b, C8-C41^b, C9-C43^b, C88-C92^a (designed binder)
chain: B13 chain
modifications: disulfides C59-C59 (inter), C8-C41 (inter), C9-C43 (inter), C88-C92 (intra)
notes: as for B1
Kd [15]: 5.79 nM | Kd [2]: 5.79 nM

B15: SEQ ID NO: 276, cysteine pairs C67-C71^a, C8-C43^a, C9-C41^a, C109-C109^b (designed binder)
chain: NSKIPKACCVPTELSAISMLYLDENEKVVLKNYQDMVVEGCGCRVDFSDVGWNDWIVAPPGYHAFYCHGECPFPLADHLNSTNHAIVQTLVNSVAQAKHKQRKRLKSSCKRHPLY
modifications: disulfides C67-C71 (intra), C8-C43 (intra), C9-C41 (intra), C109-C109 (inter)
notes: as for B1
Kd [16]: 7.66 nM | Kd [2]: 7.66 nM

B16: SEQ ID NO: 276, cysteine pairs C67-C71^a, C8-C43^b, C9-C41^b, C109-C109^b (designed binder)
chain: B15 chain
modifications: disulfides C67-C71 (intra), C8-C43 (inter), C9-C41 (inter), C109-C109 (inter)
notes: as for B1
Kd [17]: 6.31 nM | Kd [2]: 6.31 nM
